We go through one substance from PMC12612064.

The experiment addresses Pre-cleaved FUS (tag-free Fused in sarcoma) (UniProt P35637). The experiment can be described thus: fluorescence correlation spectroscopy.
Sequence of UniProt P35637 (P35637 whole entry, the tested form may be a part): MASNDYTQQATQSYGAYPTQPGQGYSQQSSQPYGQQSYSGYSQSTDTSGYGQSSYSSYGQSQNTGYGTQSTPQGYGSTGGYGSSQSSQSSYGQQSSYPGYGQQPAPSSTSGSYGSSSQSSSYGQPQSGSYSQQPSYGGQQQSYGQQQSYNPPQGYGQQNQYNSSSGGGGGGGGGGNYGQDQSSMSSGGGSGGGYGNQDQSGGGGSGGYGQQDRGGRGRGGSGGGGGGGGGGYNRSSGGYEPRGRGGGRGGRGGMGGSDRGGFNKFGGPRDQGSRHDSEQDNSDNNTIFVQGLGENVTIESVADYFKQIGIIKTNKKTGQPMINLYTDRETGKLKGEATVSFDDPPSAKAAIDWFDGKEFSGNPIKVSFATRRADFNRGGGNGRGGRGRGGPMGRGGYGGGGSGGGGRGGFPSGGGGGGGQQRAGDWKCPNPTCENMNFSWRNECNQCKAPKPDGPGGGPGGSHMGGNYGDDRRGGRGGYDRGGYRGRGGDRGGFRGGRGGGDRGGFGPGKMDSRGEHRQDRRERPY

Substance “Cy3-labeled pre-cleaved FUS (from UniProt P35637 1-526) (natural protein)” had a second critical concentration (condensate formation) of 1 µM.
